Laboratory results taken from patent US20260184786A1 (LINDIS BIOTECH, published 2026).
Positions count from the first letter of the chain named. Each block holds one binder with its values, some of them ahead of it.

Tests used:
CD3 on Jurkat cells = target: T1, CD3 on Jurkat cells (human, UniProt P07766;P09693;P04234); test: flow cytometry on Jurkat cells, FITC-labelled secondary antibody, MFI (Example 3)
T1 construct: on the surface of Jurkat cells
Description: The Jurkat cells were adjusted to a concentration of 4×10⁶ cells/ml with PBS, and the cell suspension (50 μl/well) and different concentrations of CD3 antibodies (50 μl/well) were sequentially added to a U-shaped 96-well plate and mixed evenly to achieve final antibody concentrations of […]. The cells were incubated in a 4° C. refrigerator for 1.5 h. After the incubation was completed, the plate was centrifuged (300 g, 5 min), then the supernatant was removed and the residue was washed with PBS (200 μl/well). Finally, FITC-conjugated AffiniPure Rat Anti-Mouse IgG (H+L) was added for staining, and flow cytometry was used for analysis and quantification.

Human CD3E & CD3G [1] = target: T2, Human CD3E & CD3G (human, UniProt P07766;P09693); test: ELISA on plate-coated CD3E & CD3G heterodimer protein (Example 2); 95% CI 25,03 to 66,53 ng/ml, R squared 0.9718
T2 construct: recombinant, tag given as Lama Fc; also called CD3E & CD3G heterodimer protein; CD3E/G antigen
T2 sequence (P07766 23-126 limits assumed, chain 1 of 2): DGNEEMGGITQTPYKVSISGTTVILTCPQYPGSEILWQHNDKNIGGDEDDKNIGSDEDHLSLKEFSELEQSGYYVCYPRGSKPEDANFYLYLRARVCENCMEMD
T2 sequence (P09693 23-116 limits assumed, chain 2 of 2): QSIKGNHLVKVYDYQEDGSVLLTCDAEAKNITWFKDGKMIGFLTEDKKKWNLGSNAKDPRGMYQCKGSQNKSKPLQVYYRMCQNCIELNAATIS
Description: (§1) An ELISA plate was coated with CD3E & CD3G heterodimer protein (as shown in FIG. 3) at 100 ng/well at 4° C. overnight. The next day, the plate was blocked with a blocking solution (3% BSA in 1×PBS) for 2 h, washed with a washing solution and drained. The plate was then added with gradiently diluted humanized CD3 antibodies, and incubated at 37° C. for 1 h. The reaction solution was discarded, and the plate was washed and drained. The plate was then added with diluted detection antibody (THE™ His Tag Antibody [HRP]) at 100 μL per well and incubated at 37° C. for 1 h. The detection antibody was discarded, and the plate was washed and drained. The plate was then added with a single-component TMB color developing solution returned to room temperature at 100 μL per well, and the color development was performed at 37° C. for 10 min. After the color was developed, a stop solution was added to the plate at 100 μL per well to terminate the color development reaction. The absorbance was read at 450 nm using a microplate reader.

Human CD3E & CD3G [2] = target: T2, Human CD3E & CD3G; test: ELISA, plate coated with CD3E & CD3G heterodimer protein (100 ng/well), anti-His tag HRP detection (Example 2)
Description: as §1

Human CD3E & CD3G [3] = target: T2, Human CD3E & CD3G; test: ELISA on plate-coated CD3E & CD3G heterodimer protein (Example 2); 95% CI 8,947 to 24,24 ng/ml, R squared 0.9587
Description: as §1

Human CD3E & CD3G [4] = target: T2, Human CD3E & CD3G; test: ELISA on plate-coated CD3E & CD3G heterodimer protein (Example 2); 95% CI 20,94 to 55,12 ng/ml, R squared 0.9704
Description: as §1

Human CD3E & CD3G [5] = target: T2, Human CD3E & CD3G; test: ELISA on plate-coated CD3E & CD3G heterodimer protein (Example 2); 95% CI 23,44 to 39,91 ng/ml, R squared 0.9911
Description: as §1

T1 sequence (P07766 23-207, chain 1 of 3): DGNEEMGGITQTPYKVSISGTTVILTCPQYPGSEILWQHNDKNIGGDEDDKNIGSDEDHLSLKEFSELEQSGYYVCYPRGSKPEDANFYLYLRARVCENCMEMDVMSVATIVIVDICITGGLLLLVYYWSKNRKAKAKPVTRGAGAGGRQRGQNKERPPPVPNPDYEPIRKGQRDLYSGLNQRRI
T1 sequence (P09693 23-182, chain 2 of 3): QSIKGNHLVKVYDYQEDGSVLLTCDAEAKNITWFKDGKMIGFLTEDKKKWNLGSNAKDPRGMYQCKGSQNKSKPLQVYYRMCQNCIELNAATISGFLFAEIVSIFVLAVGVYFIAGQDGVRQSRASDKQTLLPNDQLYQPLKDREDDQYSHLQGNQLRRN
T1 sequence (P04234 22-171, chain 3 of 3): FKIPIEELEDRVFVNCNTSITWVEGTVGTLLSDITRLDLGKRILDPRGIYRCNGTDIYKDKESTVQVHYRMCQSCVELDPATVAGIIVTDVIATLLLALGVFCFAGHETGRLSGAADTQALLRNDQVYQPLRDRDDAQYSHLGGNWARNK

B1: VH_V2_VL_V4 (antibody, V domains shown)
VH: EVQLVESGGGLVQPGRSLRLSCAASGFTFNNYWMSWVRQAPGKGLEWVSAITKTGGSTYYPDSVKGRFTISRDNSKSTLYLQMNSLRAEDTATYYCTREYYYDPYIDYWGQGVLVTVSS
VL: QFALTQPRSVSGSLGQSVTLSCTRTTGNIGSNYVNWYQQHEGKAPKTMIYRDDKRPSGVPDRFSGSIDRSSNTASLTISGVQAEDEADYYCQSYSSGINIFGGGTKLTVL
notes: also called HV2-LV4
EC50 (read off the curve) (CD3 on Jurkat cells): ~0.05 µg/mL
EC50 (Human CD3E & CD3G [1]): 0.0405 µg/mL

B2: C3002HC-LV4 (antibody, V domains shown)
VH: EVQLVESGGGLVQPGGSLRLSCAASGFTFNNYWMTWIRQAPGKGLEWVASITKTGGSTYYPDSVKGRFTISRDNAKNSLYLQMNSLRAEDTAVYYCTREYYYDPYIDYWGQGTMVTVSS
VL: B1 VL
EC50 (read off the curve) (CD3 on Jurkat cells): ~0.05 µg/mL

B4: VH_V2_VL_V2 (antibody, V domains shown)
VH: B1 VH
VL: QFALTQPRSVSGNLGSSVKISCKRTTGNIGSNYVNWYQQHEGKAPTTMIYRDDKRPDGVPDRFSGSKDRSGNTALLTINNLQTEDEADYYCQSYSSGINIFGGGTKLTVL
notes: also called HV2-LV2
binding result (Human CD3E & CD3G [2]): no binding (tested: 10 µg/ml)

B5: VH_V1_VL_V4 (antibody, V domains shown)
VH: B1 VH with R16G, P61A, S77N, T93V, V113T
VL: B1 VL
notes: also called HV1-LV4
EC50 (read off the curve) (CD3 on Jurkat cells): ~0.04 µg/mL
EC50 (Human CD3E & CD3G [3]): 0.0148 µg/mL

B7: VH_V3_VL_V4 (antibody, V domains shown)
VH: B1 VH with S49A, A50S, S75A, A88S
VL: B1 VL
notes: also called HV3-LV4
EC50 (read off the curve) (CD3 on Jurkat cells): ~0.04 µg/mL
EC50 (Human CD3E & CD3G [4]): 0.0337 µg/mL

B9: VH_V4_VL_V4 (antibody, V domains shown)
VH: B2 VH with A75S, N77S, S78T, M114L
VL: B1 VL
notes: also called HV4-LV4
EC50 (read off the curve) (CD3 on Jurkat cells): ~0.04 µg/mL
EC50 (Human CD3E & CD3G [5]): 0.0305 µg/mL

B10: C3002-2-HC-LV4 (antibody, V domains shown)
VH: B2 VH with V93T, T113V
VL: B1 VL
EC50 (read off the curve) (CD3 on Jurkat cells): ~0.04 µg/mL

Results, then the binder that gave them:

binding result (Human CD3E & CD3G [2]): no binding (tested: 10 µg/ml)
B3: VH_V4_VL_V1 (antibody, V domains shown)
VH: B2 VH with A75S, N77S, S78T, M114L
VL: QSALTQPRSVSGSPGQSVTISCTGTTGNIGSNYVSWYQQHPGKAPKLMIYRDDKRPSGVPDRFSGSKSGNTASLTISGLQAEDEADYYCQSYSSGINIFGGGTKLTVL
notes: also called HV4-LV1

binding result (Human CD3E & CD3G [2]): no binding (tested: 10 µg/ml)
B6: VH_V3_VL_V1 (antibody, V domains shown)
VH: B1 VH with S49A, A50S, S75A, A88S
VL: B3 VL
notes: also called HV3-LV1

binding result (Human CD3E & CD3G [2]): no binding (tested: 10 µg/ml)
B8: VH_V3_VL_V2 (antibody, V domains shown)
VH: B1 VH with S49A, A50S, S75A, A88S
VL: B4 VL
notes: also called HV3-LV2
